Data published in publication PMC7801473 (2021).

B1: NLRP1^CARD (M2H fusion) [human] / ASC^CARD (M2H fusion) [human] (parent complex)
chain 1: DAPQLLHFVDQYREQLIARVTSVEVVLDKLHGQVLSQEQYERVLAENTRPSQMRKLFSLSQSWDRKCKDGLYQALKETHPHLIMELWEKG
chain 2: AAKPGLHFIDQHRAALIARVTNVEWLLDALYGKVLTDEQYQAVRAEPTNPSKMRKLFSFTPAWNWTCKDLLLQALRESQSYLVEDLERS
B2: ASC^CARD (M2H fusion) [human] / NLRP1^CARD (M2H fusion) [human] (parent complex)
chain 1: B1 chain 2
chain 2: B1 chain 1

Variants of: B1
Assay: M2H (mammalian two-hybrid, luciferase); HEK293T cells; GAL(DBD)-ASC^CARD with VP16-NLRP1^CARD; luciferase normalized to Renilla; parent: 3; read off a plot

response	Variant
~0.97 fold of negative control	chain 1 W63G, chain 1 D64K
~1.8 fold of negative control	chain 1 R19A, chain 1 R49A
~1.5 fold of negative control	chain 1 R54A

Second part, the variant before the results:

Variant	response
chain 1 H81E	~0.98 fold of negative control
chain 1 E24R, chain 1 D28K	~0.77 fold of negative control
chain 1 R19A	~1.1 fold of negative control
chain 1 Q37A, chain 1 E41R	~1.7 fold of negative control

Variants of: B2
Assay: M2H (mammalian two-hybrid, luciferase); HEK293T cells; GAL(DBD)-NLRP1^CARD with VP16-ASC^CARD; luciferase normalized to Renilla; parent: 2.1; read off a plot

response	Variant
~0.87 fold of negative control	chain 1 R54E
~1.1 fold of negative control	chain 1 R19A, chain 1 T21A
~1.2 fold of negative control	chain 1 W63G, chain 1 N64A

The next lines start with the variant.

Variant	response
chain 1 N22A, chain 1 E24R	~0.8 fold of negative control
chain 1 D37A, chain 1 E38A	~1.4 fold of negative control
chain 1 D28K	~0.78 fold of negative control
chain 1 R13D	~0.57 fold of negative control
